In patent publication US20260015399A1 (Boehringer Ingelheim, published 2026):
*1 amine or outer side, *2 acyl side, *3 side chain or, on linkers, in order; H or OH if unused. Side-chain parts run from the residue outwards. The star is where a group is joined. C18 diacid = O=C(O)CCCCCCCCCCCCCCCCC(=O)*; γGlu = O=C(O)[C@H](CCC(=O)[*:2])N[*:1]; Isovaleryl = CC(C)CC(=O)*; Ahx = NCCCCCC(=O)O

T1: human NPY2 receptor (human, UniProt P49146 1-381)
T1 construct: whole, on cells; also called hNPY2-R; hNPY2R
T1 sequence (looked up): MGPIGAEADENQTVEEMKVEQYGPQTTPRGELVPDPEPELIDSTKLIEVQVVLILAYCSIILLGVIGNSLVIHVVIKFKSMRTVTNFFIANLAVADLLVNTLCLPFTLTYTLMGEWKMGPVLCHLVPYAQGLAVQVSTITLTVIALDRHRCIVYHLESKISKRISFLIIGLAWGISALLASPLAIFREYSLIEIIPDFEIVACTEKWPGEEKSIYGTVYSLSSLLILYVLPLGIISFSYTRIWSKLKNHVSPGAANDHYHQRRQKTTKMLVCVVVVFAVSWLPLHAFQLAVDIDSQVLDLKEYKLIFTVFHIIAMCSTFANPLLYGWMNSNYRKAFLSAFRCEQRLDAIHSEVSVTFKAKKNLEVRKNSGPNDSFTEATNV


These binders were tested against T1, human NPY2 receptor (assay: RLB: displacement of 125I-PYY(1-36) from hNPY2R membranes).

Row | Binder | Ki [nM]
1 | Isovaleryl-APEK([Ahx-γGlu-C18 diacid])PEEDAQPEEIQRYYVSLRHYYNWLTRQRY-NH2 (SMILES CC[C@H](C)[C@H](NC(=O)[C@H](CCC(=O)O)NC(=O)[C@H](CCC(=O)O)NC(=O)[C@@H]1CCCN1C(=O)[C@H](CCC(N)=O)NC(=O)[C@H](C)NC(=O)[C@H](CC(=O)O)NC(=O)[C@H](CCC(=O)O)NC(=O)[C@H](CCC(=O)O)NC(=O)[C@@H]1CCCN1C(=O)[C@H](CCCCNC(=O)CCCCCNC(=O)CC[C@H](NC(=O)CCCCCCCCCCCCCCCCC(=O)O)C(=O)O)NC(=O)[C@H](CCC(=O)O)NC(=O)[C@@H]1CCCN1C(=O)[C@H](C)NC(=O)CC(C)C)C(=O)N[C@@H](CCC(N)=O)C(=O)N[C@@H](CCCNC(=N)N)C(=O)N[C@@H](Cc1ccc(O)cc1)C(=O)N[C@@H](Cc1ccc(O)cc1)C(=O)N[C@H](C(=O)N[C@@H](CO)C(=O)N[C@@H](CC(C)C)C(=O)N[C@@H](CCCNC(=N)N)C(=O)N[C@@H](Cc1c[nH]cn1)C(=O)N[C@@H](Cc1ccc(O)cc1)C(=O)N[C@@H](Cc1ccc(O)cc1)C(=O)N[C@@H](CC(N)=O)C(=O)N[C@@H](Cc1c[nH]c2ccccc12)C(=O)N[C@@H](CC(C)C)C(=O)N[C@H](C(=O)N[C@@H](CCCNC(=N)N)C(=O)N[C@@H](CCC(N)=O)C(=O)N[C@@H](CCCNC(=N)N)C(=O)N[C@@H](Cc1ccc(O)cc1)C(N)=O)[C@@H](C)O)C(C)C) [Compound 81] | 2.65
2 | Isovaleryl-APEK([Ahx-γGlu-C18 diacid])PEEDATPEEIQRYYASLRHYYNWLTRQRY-NH2 (SMILES CC[C@H](C)[C@H](NC(=O)[C@H](CCC(=O)O)NC(=O)[C@H](CCC(=O)O)NC(=O)[C@@H]1CCCN1C(=O)[C@@H](NC(=O)[C@H](C)NC(=O)[C@H](CC(=O)O)NC(=O)[C@H](CCC(=O)O)NC(=O)[C@H](CCC(=O)O)NC(=O)[C@@H]1CCCN1C(=O)[C@H](CCCCNC(=O)CCCCCNC(=O)CC[C@H](NC(=O)CCCCCCCCCCCCCCCCC(=O)O)C(=O)O)NC(=O)[C@H](CCC(=O)O)NC(=O)[C@@H]1CCCN1C(=O)[C@H](C)NC(=O)CC(C)C)[C@@H](C)O)C(=O)N[C@@H](CCC(N)=O)C(=O)N[C@@H](CCCNC(=N)N)C(=O)N[C@@H](Cc1ccc(O)cc1)C(=O)N[C@@H](Cc1ccc(O)cc1)C(=O)N[C@@H](C)C(=O)N[C@@H](CO)C(=O)N[C@@H](CC(C)C)C(=O)N[C@@H](CCCNC(=N)N)C(=O)N[C@@H](Cc1c[nH]cn1)C(=O)N[C@@H](Cc1ccc(O)cc1)C(=O)N[C@@H](Cc1ccc(O)cc1)C(=O)N[C@@H](CC(N)=O)C(=O)N[C@@H](Cc1c[nH]c2ccccc12)C(=O)N[C@@H](CC(C)C)C(=O)N[C@H](C(=O)N[C@@H](CCCNC(=N)N)C(=O)N[C@@H](CCC(N)=O)C(=O)N[C@@H](CCCNC(=N)N)C(=O)N[C@@H](Cc1ccc(O)cc1)C(N)=O)[C@@H](C)O) [Compound 86] | 4.33
3 | Isovaleryl-APAK([Ahx-γGlu-C18 diacid])PEEDASPEETQRYYVSLRHYYNWLTRQRY-NH2 (SMILES CC(C)CC(=O)N[C@@H](C)C(=O)N1CCC[C@H]1C(=O)N[C@@H](C)C(=O)N[C@@H](CCCCNC(=O)CCCCCNC(=O)CC[C@H](NC(=O)CCCCCCCCCCCCCCCCC(=O)O)C(=O)O)C(=O)N1CCC[C@H]1C(=O)N[C@@H](CCC(=O)O)C(=O)N[C@@H](CCC(=O)O)C(=O)N[C@@H](CC(=O)O)C(=O)N[C@@H](C)C(=O)N[C@@H](CO)C(=O)N1CCC[C@H]1C(=O)N[C@@H](CCC(=O)O)C(=O)N[C@@H](CCC(=O)O)C(=O)N[C@H](C(=O)N[C@@H](CCC(N)=O)C(=O)N[C@@H](CCCNC(=N)N)C(=O)N[C@@H](Cc1ccc(O)cc1)C(=O)N[C@@H](Cc1ccc(O)cc1)C(=O)N[C@H](C(=O)N[C@@H](CO)C(=O)N[C@@H](CC(C)C)C(=O)N[C@@H](CCCNC(=N)N)C(=O)N[C@@H](Cc1c[nH]cn1)C(=O)N[C@@H](Cc1ccc(O)cc1)C(=O)N[C@@H](Cc1ccc(O)cc1)C(=O)N[C@@H](CC(N)=O)C(=O)N[C@@H](Cc1c[nH]c2ccccc12)C(=O)N[C@@H](CC(C)C)C(=O)N[C@H](C(=O)N[C@@H](CCCNC(=N)N)C(=O)N[C@@H](CCC(N)=O)C(=O)N[C@@H](CCCNC(=N)N)C(=O)N[C@@H](Cc1ccc(O)cc1)C(N)=O)[C@@H](C)O)C(C)C)[C@@H](C)O) [Compound 85] | 1.61
4 | Isovaleryl-APAK([Ahx-γGlu-C18 diacid])PPEDASPEEIQRYYVSLRHYYNWLTRQRY-NH2 (SMILES CC[C@H](C)[C@H](NC(=O)[C@H](CCC(=O)O)NC(=O)[C@H](CCC(=O)O)NC(=O)[C@@H]1CCCN1C(=O)[C@H](CO)NC(=O)[C@H](C)NC(=O)[C@H](CC(=O)O)NC(=O)[C@H](CCC(=O)O)NC(=O)[C@@H]1CCCN1C(=O)[C@@H]1CCCN1C(=O)[C@H](CCCCNC(=O)CCCCCNC(=O)CC[C@H](NC(=O)CCCCCCCCCCCCCCCCC(=O)O)C(=O)O)NC(=O)[C@H](C)NC(=O)[C@@H]1CCCN1C(=O)[C@H](C)NC(=O)CC(C)C)C(=O)N[C@@H](CCC(N)=O)C(=O)N[C@@H](CCCNC(=N)N)C(=O)N[C@@H](Cc1ccc(O)cc1)C(=O)N[C@@H](Cc1ccc(O)cc1)C(=O)N[C@H](C(=O)N[C@@H](CO)C(=O)N[C@@H](CC(C)C)C(=O)N[C@@H](CCCNC(=N)N)C(=O)N[C@@H](Cc1c[nH]cn1)C(=O)N[C@@H](Cc1ccc(O)cc1)C(=O)N[C@@H](Cc1ccc(O)cc1)C(=O)N[C@@H](CC(N)=O)C(=O)N[C@@H](Cc1c[nH]c2ccccc12)C(=O)N[C@@H](CC(C)C)C(=O)N[C@H](C(=O)N[C@@H](CCCNC(=N)N)C(=O)N[C@@H](CCC(N)=O)C(=O)N[C@@H](CCCNC(=N)N)C(=O)N[C@@H](Cc1ccc(O)cc1)C(N)=O)[C@@H](C)O)C(C)C) [Compound 82] | 0.58
5 | Isovaleryl-APEK([Ahx-γGlu-C18 diacid])PEEDATSEELQRYYVSLRHYYNWLTRQRY-NH2 (SMILES CC(C)CC(=O)N[C@@H](C)C(=O)N1CCC[C@H]1C(=O)N[C@@H](CCC(=O)O)C(=O)N[C@@H](CCCCNC(=O)CCCCCNC(=O)CC[C@H](NC(=O)CCCCCCCCCCCCCCCCC(=O)O)C(=O)O)C(=O)N1CCC[C@H]1C(=O)N[C@@H](CCC(=O)O)C(=O)N[C@@H](CCC(=O)O)C(=O)N[C@@H](CC(=O)O)C(=O)N[C@@H](C)C(=O)N[C@H](C(=O)N[C@@H](CO)C(=O)N[C@@H](CCC(=O)O)C(=O)N[C@@H](CCC(=O)O)C(=O)N[C@@H](CC(C)C)C(=O)N[C@@H](CCC(N)=O)C(=O)N[C@@H](CCCNC(=N)N)C(=O)N[C@@H](Cc1ccc(O)cc1)C(=O)N[C@@H](Cc1ccc(O)cc1)C(=O)N[C@H](C(=O)N[C@@H](CO)C(=O)N[C@@H](CC(C)C)C(=O)N[C@@H](CCCNC(=N)N)C(=O)N[C@@H](Cc1c[nH]cn1)C(=O)N[C@@H](Cc1ccc(O)cc1)C(=O)N[C@@H](Cc1ccc(O)cc1)C(=O)N[C@@H](CC(N)=O)C(=O)N[C@@H](Cc1c[nH]c2ccccc12)C(=O)N[C@@H](CC(C)C)C(=O)N[C@H](C(=O)N[C@@H](CCCNC(=N)N)C(=O)N[C@@H](CCC(N)=O)C(=O)N[C@@H](CCCNC(=N)N)C(=O)N[C@@H](Cc1ccc(O)cc1)C(N)=O)[C@@H](C)O)C(C)C)[C@@H](C)O) [Compound 83] | 6.91
